# Patent US20210380703A1
# Substitutions are numbered along the chain they refer to.
# B1: 374_A03 (antibody, V domains shown)
# VH: EVQLLESGGGLVQPGGSLRLSCAASGFTFDSYSMNWVRQAPGKGLEWVSNINYNGGYTSYADSVKGRFTISRDNSKNTLYLQMNSLRAEDTAVYYCARSATWHDTHLDYWGQGTLVTVSS
# VL: DIQMTQSPSSLSASVGDRVTITCRASQSILTYLNWYQQKPGKAPKLLIYAATSRASGVPSRFSGSGSGTDFTLTISSLQPEDFATYYCQQSYDNPLTFGGGTKVEIK
# B2: 365_E04 (antibody, V domains shown)
# VH: B1 VH with S33G, N35H, S49A, N50S, T58K, S99A, T101N, H106A
# VL: B1 VL with T31S, L33V, R54L, D93E, N94L
# B3: 365_A02 (antibody, V domains shown)
# VH: B1 VH
# VL: B1 VL with L33V, D93N, N94S
# B4: 369_C09 (antibody, V domains shown)
# VH: B1 VH with D30S, S33G, N35H, N50S, S59G, S99A
# VL: B1 VL with L30V, T31S, L47V, A55H, N94L
# B5: 371_B02 (antibody, V domains shown)
# VH: B1 VH with S33G, S99A
# VL: B1 VL with L33V, L47V, R54L, D93N
# B6: 365_G07 (antibody, V domains shown)
# VH: B1 VH with S33G, N35H, N50S, S99A, T101N, H106A
# VL: B1 VL with L30V, T31S
# B7: 374_A08 (antibody, V domains shown)
# VH: B1 VH with G55S
# VL: B1 VL with L30V, R54L, N94L
# B8: 370_A10 (antibody, V domains shown)
# VH: B1 VH with D30S, S31D, N50S, G55S, T58K, S59G
# VL: B1 VL with T31S, L33V, R54L, N94T
# B9: 375_F01 (antibody, V domains shown)
# VH: B1 VH with D30S, N50S, G55S, S59G
# VL: B1 VL with L30V, T31S, L47V
# B10: 365_G02 (antibody, V domains shown)
# VH: B1 VH with D30S, S31D, G55S, T58K, S59G
# VL: B1 VL with L30V, L47V, A51V, R54L, A55H, D93E, N94L
# B11: 370_D07 (antibody, V domains shown)
# VH: B1 VH with D30S, S33G, G55S, S59G
# VL: B1 VL with T31S, L33V, L47V, R54L, D93E, N94S
# B12: 374_E03 (antibody, V domains shown)
# VH: B1 VH with D30S, G55S, T58K, S59G
# VL: B1 VL with L33V, L47V, R54L, N94T
# B13: 367_H08 (antibody, V domains shown)
# VH: B1 VH with S33G, N50S, S99A
# VL: B1 VL with L33V, A55H, D93N, N94L
# B14: 368_E08 (antibody, V domains shown)
# VH: B1 VH with S33G, N35H, S49A, G55S, S59G, S99A
# VL: B1 VL with T31S, L33V, L47V, R54L, A55H, D93E, N94T
# B15: 368_G08 (antibody, V domains shown)
# VH: B1 VH with S31D, S33G, N50S, G55S, T58K
# VL: B1 VL with L30V, T31S, L33V, A55H, D93N
# B16: 369_C11 (antibody, V domains shown)
# VH: B1 VH with D30S, S31D, S33G, N35H, S49A, N50G, S59G, S99A
# VL: B1 VL with T31S, L47V, N94T
# B17: 368_G07 (antibody, V domains shown)
# VH: B1 VH with D30S, N35H, N50S
# VL: B1 VL with L30V, T31S, L33V, L47V, N94T
# B18: 373_D02 (antibody, V domains shown)
# VH: B1 VH with D30S, G55S, T58K, S59G
# VL: B1 VL with T31S, R54L, N94L
# B19: 369_E09 (antibody, V domains shown)
# VH: B1 VH with G55S, T58K, S59G
# VL: B1 VL with T31S, L47V, N94L
# B20: 375_G12 (antibody, V domains shown)
# VH: B1 VH with S33G, N35H, N50S
# VL: B1 VL with L30V, T31S, L33V, A55H, N94T
# B21: 368_B12 (antibody, V domains shown)
# VH: B1 VH with S33G, N35H, N50G, G55S, S99A
# VL: B1 VL with L30V, T31S, L33V, N94L
# B22: 367_G03 (antibody, V domains shown)
# VH: B1 VH with N35H, S49A, S99A
# VL: B1 VL with L30V, T31S, L33V, L47V, A55H, N94L
# B23: 368_C07 (antibody, V domains shown)
# VH: B1 VH with D30S, S33G, N35H, S49A, N50G, G55S, S99A
# VL: B1 VL with L30V, T31S, L33V, L47V, D93E
# B24: 370_B06 (antibody, V domains shown)
# VH: B1 VH with D30S, S33G, N35H, S49A, N50G, S99A
# VL: B1 VL with L30V, T31S, L33V, L47V, D93E, N94T
# B25: 369_B07 (antibody, V domains shown)
# VH: B1 VH with S33G, N35H, S49A, T58K, S99A
# VL: B1 VL with L30V, T31S, L33V, L47V, R54L, N94L
# B26: 370_E12 (antibody, V domains shown)
# VH: B1 VH with S33G, N35H, S49A, N50G, S99A
# VL: B1 VL with T31S, L33V, D93E
# B27: 368_H03 (antibody, V domains shown)
# VH: B1 VH with S31D, N35H, S49A, N50S, S59G, S99A
# VL: B1 VL with T31S, L33V, L47V, A51V, A55H, D93S
# B28: 369_A12 (antibody, V domains shown)
# VH: B1 VH with D30S, N35H, S49A, N50S, G55S, S59G, S99A
# VL: B1 VL with A55H, N94L
# B29: 375_G10 (antibody, V domains shown)
# VH: B1 VH with D30S, S33G, N50S, T58K
# VL: B1 VL with L30V, L47V, A55H, N94T
# B30: 367_H04 (antibody, V domains shown)
# VH: B1 VH with D30S, N50S
# VL: B1 VL with L33V, A55H, Y92D, D93N
# B31: 366_C07 (antibody, V domains shown)
# VH: B1 VH with D30S
# VL: B1 VL with L33V, D93N, N94S
# B32: 369_E03 (antibody, V domains shown)
# VH: B1 VH with D30S, S33G, N35H, S49A, N50G, S99A
# VL: B1 VL with T31S, L33V, R54L, D93E
# B33: 371_A05 (antibody, V domains shown)
# VH: B1 VH with D30S, S33G, N35H, T58K, S99A
# VL: B1 VL with Y92D, D93N, N94L
# B34: 374_G01 (antibody, V domains shown)
# VH: B1 VH with G55S
# VL: B1 VL with L33V, A51T, A55H, D93N, N94L
# B35: 365_D06 (antibody, V domains shown)
# VH: B1 VH
# VL: B1 VL with L33V, D93S, N94L
# B36: 368_C12 (antibody, V domains shown)
# VH: B1 VH with S33G, N35H, S49A, N50S, S99A
# VL: B1 VL with Y92D, D93S
# B37: 368_G11 (antibody, V domains shown)
# VH: B1 VH with S33G, N35H, N50G, G55S, T58K, S99A, H106A
# VL: B1 VL with Y92D, D93N, N94T
# B38: 374_D11 (antibody, V domains shown)
# VH: B1 VH with S33G, G55S, S59G
# VL: B1 VL with D93E, N94T
# B39: 368_D06 (antibody, V domains shown)
# VH: B1 VH with D30S, S33G, S59G, S99A
# VL: B1 VL with T31S, L33V, L47V, A55H, D93E
# B40: 370_H05 (antibody, V domains shown)
# VH: B1 VH with D30S, S33G, N35H, S99A
# VL: B1 VL with T31S, T52S, R54L, A55Q, Y92D, D93S, N94L
# B41: 368_B04 (antibody, V domains shown)
# VH: B1 VH with S33G, N35H, N50S, S99A
# VL: B1 VL with L30V, T31S, L47V, D93E
# B42: 369_C06 (antibody, V domains shown)
# VH: B1 VH with D30S, N35H, N50S, T58K, S99A
# VL: B1 VL with T31S, L33V, N94S
# B43: 374_E06 (antibody, V domains shown)
# VH: B1 VH with N50S, G55S, T58K, S59G
# VL: B1 VL with T31S, N94L
# B44: 370_A08 (antibody, V domains shown)
# VH: B1 VH with N50S, G55S, S59G
# VL: B1 VL with L30V, L47V, N94L
# B45: 369_B08 (antibody, V domains shown)
# VH: B1 VH with S33G, N35H, N50S, S99A
# VL: B1 VL with T31S, L33V, D93E, N94S
# B46: 368_H10 (antibody, V domains shown)
# VH: B1 VH with D30S, N50S, G55S, T58K, S59G
# VL: B1 VL with L30V, T31S, L33V, L47V, A51V, R54L, D93E, N94T
# B47: 369_A04 (antibody, V domains shown)
# VH: B1 VH with S33G, N35H, S49A, N50S, T58K, S99A
# VL: B1 VL with L30V, T31S, L33V, L47V, R54L, N94L
# B48: 374_G12 (antibody, V domains shown)
# VH: B1 VH with S31D, S33G, N50S, T58K
# VL: B1 VL with L33V, L47V, R54L, D93N, N94S
# Target: human Fc (human)
# Experiment: ELISA, negative control
row,Binder,optical density
1,B1,0.178 OD
2,B2,0.46 OD
3,B3,0.374 OD
4,B4,0.32 OD
5,B5,0.449 OD
6,B6,0.331 OD
7,B7,0.16 OD
8,B8,0.434 OD
9,B9,0.166 OD
10,B10,0.325 OD
11,B11,0.309 OD
12,B12,0.176 OD
13,B13,0.312 OD
14,B14,0.255 OD
15,B15,0.329 OD
16,B16,0.378 OD
17,B17,0.29 OD
18,B18,0.18 OD
19,B19,0.278 OD
20,B20,0.199 OD
21,B21,0.567 OD
22,B22,0.341 OD
23,B23,0.282 OD
24,B24,0.441 OD

row,Binder,optical density
1,B25,0.319 OD
2,B26,0.656 OD
3,B27,0.343 OD
4,B28,0.461 OD
5,B29,0.175 OD
6,B30,0.289 OD
7,B31,0.301 OD
8,B32,0.63 OD
9,B33,0.369 OD
10,B34,0.161 OD
11,B35,0.319 OD
12,B36,0.346 OD
13,B37,0.306 OD
14,B38,0.162 OD
15,B39,0.265 OD
16,B40,0.364 OD
17,B41,0.304 OD
18,B42,0.414 OD
19,B43,0.191 OD
20,B44,0.319 OD
21,B45,0.309 OD
22,B46,0.281 OD
23,B47,0.353 OD
24,B48,0.214 OD
